Test results published in publication PMC3219680 (2011).

T1: Mouse Cerberus 1 homologue (mCer1) recombinant protein (mouse, UniProt O55233 18-272)
T1 chain: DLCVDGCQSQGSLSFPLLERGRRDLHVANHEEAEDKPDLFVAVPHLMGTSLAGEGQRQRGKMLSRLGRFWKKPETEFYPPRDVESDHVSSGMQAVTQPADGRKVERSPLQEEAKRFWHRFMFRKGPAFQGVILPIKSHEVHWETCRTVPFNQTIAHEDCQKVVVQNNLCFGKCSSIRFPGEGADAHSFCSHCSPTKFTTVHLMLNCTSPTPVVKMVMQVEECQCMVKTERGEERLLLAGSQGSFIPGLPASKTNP


Target: T1, Mouse Cerberus 1 homologue (mCer1) …
Assay: SPR

| Kd [nM] | Binder |
| --- | --- |
| 23.4 | hBMP4 (ligand) SPKHHSQRARKKNKNCRRHSLYVDFSDVGWNDWIVAPPGYQAFYCHGDCPFPLADHLNSTNHAIVQTLVNSVNSSIPKACCVPTELSAISMLYLDEYDKVVLKNYQEMVVEGCGCR |
| 3.38 | hBMP2 (ligand) QAKHKQRKRLKSSCKRHPLYVDFSDVGWNDWIVAPPGYHAFYCHGECPFPLADHLNSTNHAIVQTLVNSVNSKIPKACCVPTELSAISMLYLDENEKVVLKNYQDMVVEGCGCR |
